Tests used:
YAP [1] = biological target: YAP (UniProt P46937); assay: Flag-14-3-3ζ co-IP, YAP blot; settings: reference: Flag-14-3-3ζ wild type; sites S37
YAP [2] = biological target: YAP (UniProt P46937); assay: His-YAP Ni-NTA pull-down of Flag-14-3-3ζ IPs; settings: reference: wild type with rERK2; sites S37

14-3-3ζ (from UniProt P63104) Flag-14-3-3ζ S37A
binding against the reference (YAP [1]): stronger

14-3-3ζ (from UniProt P63104) S37A with rERK2
binding against the reference (YAP [2]): gained

Reference: paper PMC6510816
